{
  "source": "patent US20030235534A1",
  "about": "“Methods and compositions for radioimmunotherapy of brain and CNS tumors” (priority 2002, published 2003)",
  "key": {"glioblastome multiforme": {"system": "glioblastome multiforme", "test": "Treatment of a brain cancer patient with premixed bispecific antibody-mediated radioimmunotherapy using a beta-emitting radionuclide", "conditions": "1:1 molar mixture with bispecific antibody of Example 1; 12 mCi Y-90, 10 mg antibody, into reservoir, 4 days post surgery", "description": "A patient with recently-diagnosed glioblastome multiforme in their left hemisphere, which is limited to a focal lesion, undergoes a gross total resection, with placement of a Rickham reservoir and catheter into the surgically-created resection cavity. Placement of the catheter is confirmed by an MRI scan 24 h later. […] The reservoir and catheter are flushed after the antibody injection."}, "[1]": {"system": "inoperable brain tumor in the pons", "test": "Treatment of a brain cancer patient with pretargeted bispecific antibody-mediated radioimmunotherapy using an alpha-emitting radionuclide (intravenous)", "description": "This preparation has an In-111 label to confirm targeting to the brain tumor by gamma camera imaging 24 h later. After two more days, to allow for adequate localization of the bispecific antibody to the tumor and clearance from the body, the Ac-225-IMP 241 of example 7, above, is also injected intravenously, at a dose of 1 mCi."}, "glioblastoma multiforme": {"system": "glioblastoma multiforme", "test": "Treatment of a brain cancer patient with pretargeted bispecific antibody-mediated radioimmunotherapy using an alpha-emitting radionuclide (hapten into surgical cavity)"}, "[2]": {"conditions": "1 mCi i.v. after 30 mg i.v. humanized anti-tenascin x anti-HSG bispecific antibody, 8 weeks later"}},
  "note": "*1 amine or outer side, *2 acyl side, *3 side chain or, on linkers, in order; H or OH if unused. Where a SMILES comes first, the peptide text is derived from it. Side-chain parts run from the residue outwards. [ ]: non-standard residue; d: D form. The star is where a group is joined. DOTA = O=C(O)CN1CCN(CC(=O)O)CCN(CC(=O)*)CCN(CC(=O)O)CC1; NH(2-(imidazol-4-yl)ethyl) = c1ncc(CCN*)[nH]1; Suc = O=C(CCC(=O)[*:2])[*:1]",
  "data": [
    {"smiles": "NC(=O)[C@H](CCCCNC(=O)CNC(=O)CCC(=O)NCCc1cnc[nH]1)NC(=O)[C@@H](Cc1ccc(O)cc1)NC(=O)[C@H](CCCCNC(=O)CNC(=O)CCC(=O)NCCc1cnc[nH]1)NC(=O)[C@H](Cc1ccccc1)NC(=O)CN1CCN(CC(=O)O)CCN(CC(=O)O)CCN(CC(=O)O)CC1", "note": "(90Y complex, metal not drawn) [Y-90-IMP 241] ({DOTA}-FK([Gly-Suc-NH(2-(imidazol-4-yl)ethyl)])[dY]K([Gly-Suc-NH(2-(imidazol-4-yl)ethyl)])-NH2)", "values": [
      {"measurement": "tolerability of radioimmunotherapy procedure", "setting": "glioblastome multiforme", "value": "tolerates the radioimmunotherapy procedure well"}
    ]},
    {"smiles": "NC(=O)[C@H](CCCCNC(=O)CNC(=O)CCC(=O)NCCc1cnc[nH]1)NC(=O)[C@@H](Cc1ccc(O)cc1)NC(=O)[C@H](CCCCNC(=O)CNC(=O)CCC(=O)NCCc1cnc[nH]1)NC(=O)[C@H](Cc1ccccc1)NC(=O)CN1CCN(CC(=O)O)CCN(CC(=O)O)CCN(CC(=O)O)CC1", "note": "[Ac-225-IMP 241, metal not drawn] ({DOTA}-FK([Gly-Suc-NH(2-(imidazol-4-yl)ethyl)])[dY]K([Gly-Suc-NH(2-(imidazol-4-yl)ethyl)])-NH2)", "values": [
      {"measurement": "granulocytes (ANC) and platelets", "setting": "[1]; [2]", "value": "within the normal range"},
      {"measurement": "hematological toxicity", "setting": "[1]; [2]", "value": "no evidence of hematological toxicity"},
      {"measurement": "adverse events from therapy", "setting": "glioblastoma multiforme; 1 mCi into surgical cavity two days after 30 mg i.v. humanized anti-tenascin x anti-HSG bispecific antibody", "value": "does not experience any adverse events"}
    ]},
    {"smiles": "Cn1nnc2c(C(N)=O)ncn2c1=O", "note": "[temozolomide, reference compound]", "values": [
      {"measurement": "additional reduction of the tumor", "setting": "[1]; temozolomide therapy given three months after the 3-month follow-up of radioimmunotherapy", "value": 25, "unit": "%"},
      {"measurement": "tolerability of chemotherapy regimen", "setting": "glioblastoma multiforme; given after radioimmunotherapy", "value": "tolerated well"}
    ]}
  ]
}
